The results in this text go back to US20260184783A1 (Merck Sharp & Dohme, published 2026).

What is called EC50 (read off the curve) is the concentration needed to bring the measured effect to its halfway point. The Kd is the equilibrium constant for the complex coming apart. Higher therefore signals a looser complex. For orientation: koff means a measure of how fast the partners let go of each other. Higher therefore signals a short-lived complex. The term kon denotes the rate constant with which the complex forms.

Test [1] concerns the target T1, human LAG-3 expressed on cells (human, UniProt P18627 23-525).
T1 construct: the transgene used on the cells is not tied to it by number; also called hLAG-3; 3A9.hLAG-3
T1 sequence: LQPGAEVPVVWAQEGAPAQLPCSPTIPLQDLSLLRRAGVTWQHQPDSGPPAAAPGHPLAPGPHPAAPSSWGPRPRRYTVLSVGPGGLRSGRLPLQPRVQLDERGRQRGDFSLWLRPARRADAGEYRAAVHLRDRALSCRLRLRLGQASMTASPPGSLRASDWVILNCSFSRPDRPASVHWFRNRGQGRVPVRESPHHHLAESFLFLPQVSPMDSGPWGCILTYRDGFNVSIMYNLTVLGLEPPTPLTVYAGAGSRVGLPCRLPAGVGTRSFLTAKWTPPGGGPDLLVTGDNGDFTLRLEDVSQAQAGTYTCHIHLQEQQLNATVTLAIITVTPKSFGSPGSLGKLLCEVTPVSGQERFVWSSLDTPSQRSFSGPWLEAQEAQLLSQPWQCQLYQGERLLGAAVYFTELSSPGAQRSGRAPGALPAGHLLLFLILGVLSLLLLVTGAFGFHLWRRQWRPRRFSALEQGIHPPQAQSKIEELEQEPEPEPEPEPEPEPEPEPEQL
In words: flow cytometry on 3A9 cells expressing human LAG-3; anti-FLAG + PE goat anti-mouse. How it is done: (§1) Binding to cell-expressed human LAG-3 was evaluated on human LAG-3 over-expressing 3A9 cells. A Nanobody dilution series was prepared in assay buffer: PBS/10% FBS/0.05% sodium azide. 1×10⁵ cells/well were transferred to a 96-well V-bottom plate and resuspended in 100 μL Nanobody dilution. After 30 minutes incubation at 4° C., the cells were washed with 100 μL/well assay buffer and resuspended in 100 μL/well of 1 μg/ml anti-FLAG (Sigma, F1804). […] Samples were incubated for 30 minutes at 4° C., washed, and resuspended in 100 μL/well of 5 nM TOPRO3 (LifeTechnologies, T3606) solution before analysis on FACS CANTO II (BD).
On the technique in general: In flow cytometry, cells or beads pass a laser one at a time.

In test [2] the target is T2, human LAG-3-hFc (human, UniProt P18627 23-450).
T2 construct: also called human LAG3-Fc; Human LAG-3-Fc; not shown: human Fc
T2 sequence: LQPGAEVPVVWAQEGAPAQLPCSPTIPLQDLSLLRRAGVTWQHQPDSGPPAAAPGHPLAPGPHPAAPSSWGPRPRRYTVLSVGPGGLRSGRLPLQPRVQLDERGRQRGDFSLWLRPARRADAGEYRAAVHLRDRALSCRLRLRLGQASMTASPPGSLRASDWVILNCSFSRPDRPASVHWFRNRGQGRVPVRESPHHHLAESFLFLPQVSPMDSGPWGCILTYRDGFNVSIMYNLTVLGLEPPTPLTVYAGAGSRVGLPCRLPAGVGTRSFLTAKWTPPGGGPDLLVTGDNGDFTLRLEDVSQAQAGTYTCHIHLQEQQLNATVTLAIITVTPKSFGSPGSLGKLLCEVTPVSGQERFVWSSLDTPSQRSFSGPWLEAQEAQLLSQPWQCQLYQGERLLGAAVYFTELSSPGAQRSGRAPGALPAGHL
The experiment in a line: SPR, Biacore T100; human LAG3-hFc captured on anti-human IgG(Fc), Nanobody as analyte; Langmuir with mass transport. How it is done: Kinetic analysis of Nanobodies was performed by surface plasmon resonance (SPR) technology, using the Biacore T100 instrument (GE Healthcare). HBS-EP+(0.01 M HEPES pH 7.4, 0.15 M NaCl, 3 mM EDTA, 0.05% v/v Surfactant P20) was used as running buffer and the experiments were performed at 25° C. Two flow channels of a Series S Sensor Chip CM5 were activated with EDC (200 mM)/NHS (50 mM) and anti-Human IgG(Fc) (GE Healthcare, BR100839) was injected at 5 μg/ml in the supplied immobilization buffer (10 mM sodium acetate pH5.0) to render immobilization levels of approximately 2000 R U. After immobilization, surfaces were deactivated with 1M ethanolamine/HCl (pH 8.5). The flow rate during the sensor preparation was set on 5 μL/min.
Sensorgram processing and data analysis was performed with Biacore T100 Evaluation Software Version 2.0.4 (GE Healthcare). […] Processed curves were evaluated via fitting with the model ‘Langmuir with Mass Transport’.
In general terms: SPR reads the build-up and loss of mass on a sensor chip optically.

The target of test [3] is T2, human LAG-3-hFc. In words: flow cytometry competition: blockade of 40 nM human LAG-3-hFc binding to MHC class II on Daudi cells; PE goat anti-human IgG. The protocol:
A Nanobody dilution series was prepared in assay buffer: HBSS/2% FBS. Prior to the experiment, Fc receptors on the Daudi cells were blocked with human Fc block (BD Pharmingen, 564220) and 5 μg/mL goat IgG (Jackson ImmunoResearch, 005-000-003) for 30 minutes at 4° C. […] 1×10⁵ cells/well were seeded in V-bottom 96-well plates and resuspended in 100 μL/well of the Nanobody/ligand dilution. After 30 minutes incubation at 4° C., the cells were washed and resuspended in 100 μL/well PE-labeled Goat anti-human IgG (Southern Biotech, 2043-09). Samples were incubated for 15 minutes at 4° C., washed, and resuspended in 100 μL/well of 5 nM TOPRO3 (LifeTechnologies, T3606) solution before analysis on FACS CANTO II (BD).

In test [4] the target is T3, human PD-1 expressed on cells (human, UniProt Q15116 25-288).
T3 construct: the transgene used on the cells is not tied to it by number; also called hPD-1; CHO.hPD-1
T3 sequence (Q15116 25-288 limits assumed): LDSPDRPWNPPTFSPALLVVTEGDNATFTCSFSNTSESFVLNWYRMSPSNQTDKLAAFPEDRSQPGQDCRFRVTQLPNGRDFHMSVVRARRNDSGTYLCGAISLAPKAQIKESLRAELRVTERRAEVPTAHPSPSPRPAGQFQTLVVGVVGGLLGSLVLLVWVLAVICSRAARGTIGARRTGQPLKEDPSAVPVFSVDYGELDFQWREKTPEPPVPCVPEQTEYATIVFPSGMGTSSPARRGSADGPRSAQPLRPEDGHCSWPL
In words: flow cytometry on CHO-K1 cells expressing human PD-1; anti-FLAG + PE goat anti-mouse. The protocol: as §1, with “PD-1” for “LAG-3”, “CHO” for “3A9”, “F1804) or anti-HIS (AbD Serotec, MCA 1396).” for “F1804).”

Test [5] addresses T3, human PD-1 expressed on cells. The experiment in a line: flow cytometry competition: blockade of human PD-L1-hFc binding to CHO-K1 cells expressing human PD-1; PE goat anti-human IgG. The protocol:
(§2) Ligand competition assays were performed on human PD-1 over-expressing CHO cells. A Nanobody dilution series was prepared in assay buffer: PBS/10% FBS/0.05% sodium azide. […] 2×10⁴ cells/well were seeded in V-bottom 96-well plates and resuspended in 200 μL/well of the Nanobody/ligand dilution. After 90 minutes incubation at 4° C., the cells were washed with 100 μL/well assay buffer and resuspended in 100 μL/well PE-labeled Goat anti-human IgG (Southern Biotech, 2043-09). Samples were incubated for 30 minutes at 4° C., washed, and resuspended in 100 μL/well of 5 nM TOPRO3 (LifeTechnologies, T3606) solution before analysis on FACS CANTO II (BD).

Test [6] has the same target. In words: flow cytometry competition: blockade of human PD-L2-hFc binding to CHO-K1 cells expressing human PD-1; PE goat anti-human IgG. How it is done:
as §2

In test [7] the target is T4, human PD-1-hFc (human, UniProt Q15116 25-170).
T4 construct: also called hPD-1-hFc; hPD1-hFc; not shown: human Fc
T4 sequence (Q15116 25-170 limits assumed): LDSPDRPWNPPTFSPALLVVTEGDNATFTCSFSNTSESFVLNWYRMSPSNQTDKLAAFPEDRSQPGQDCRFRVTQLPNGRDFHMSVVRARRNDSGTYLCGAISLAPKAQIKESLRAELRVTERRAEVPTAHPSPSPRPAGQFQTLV
In words: SPR, Biacore T100; hPD-1-hFc immobilised on CM5, Nanobody as analyte; Langmuir with mass transport. The protocol:
(§3) Kinetic analysis of the Nanobodies was performed by SPR technology, using the Biacore T100 instrument (GE Healthcare). HBS-EP+(0.01 M HEPES pH 7.4, 0.15 M NaCl, 3 mM EDTA, 0.05% v/v Surfactant P20) was used as running buffer and the experiments were performed at 25° C. Two flow channels of a Series S Sensor Chip CM5 were activated with EDC (200 mM)/NHS (50 mM). hPD-1-hFc was injected (4 times) at 5 μg/ml in suitable immobilization buffer (10 mM sodium acetate pH4.5) over one surface to render immobilization levels of 303 RU. After immobilization, surfaces were deactivated with 1M ethanolamine/HCl (pH 8.5). The flow rate during the sensor preparation was set on 5 μl/min.
(§4) After each cycle (i.e. before a new Nanobody injection step) the hPD1-hFc surfaces were regenerated with a 1 minute injection 10 mM Glycine pH1.5 at 45 μl/min. Sensorgram processing and data analysis was performed with Biacore T100 Evaluation Software Version 2.0.4 (GE Healthcare). Sensorgrams showing Nanobody binding were obtained after double referencing by subtracting 1) non-specific binding to reference flow channel and 2) HBS-EP+injection. Processed curves were evaluated via fitting with the model ‘Langmuir with Mass Transport’.

For test [8], the target named is T4, human PD-1-hFc. In words: SPR, Biacore T100; hPD-1-hFc immobilised on CM5 (303 RU), Nanobody as analyte; Langmuir with mass transport. The protocol: as §3, §4

B1: F023700842 (F0237611B09(L11V, A14P, R41P, N43K, A62S, A74S, K83R, V89L)-FLAG3-HIS6) (VHH)
VHH: EVQLVESGGGVVQPGGSLRLSCAASGRTFSDYVMGWFRQAPGKEREFVAAISESGGRTHYADSVKGRFTISRDNSKNTLYLQMNSLRPEDTALYYCATTLLWWTSEYAPIKANDYDYWGQGTLVTVSS
notes: also called F023700842-FLAG3-HIS6
With B1, the 50% effective concentration (EC50 (read off the curve)) in test [1] is roughly 2 nM. Also, in test [2], binding was characterised by a dissociation constant (Kd) of 21 nM, the off-rate (koff) amounted to 0.019 s⁻¹ and the on-rate (kon) was 920000 M⁻¹ s⁻¹. For the same molecule, the “IC50 (read off the curve)” value in test [3] was roughly 30 nM.

B2: F0237611B09-FLAG3-HIS6 (VHH)
VHH: EVQLVESGGGLVQAGGSLRLSCAASGRTFSDYVMGWFRQARGNEREFVAAISESGGRTHYADAVKGRFTISRDNAKNTLYLQMNSLKPEDTAVYYCATTLLWWTSEYAPIKANDYDYWGQGTLVTVSS
notes: original monovalent anti-human LAG-3 Nanobody; also called F0237611B09-FLAG-His6
On to B2, for which, in test [1], the concentration for a half-maximal effect (EC50 (read off the curve)) is roughly 2 nM. In test [3], the “IC50 (read off the curve)” value was roughly 20 nM.

B3: F023700275 (1PD102C12(A14P, A74S, K83R)-FLAG3-HIS6) (VHH)
VHH: EVQLVESGGGLVQPGGSLRLSCAASGSIASIHAMGWFRQAPGKEREFVAVITWSGGITYYADSVKGRFTISRDNSKNTVYLQMNSLRPEDTAIYYCAGDKHQSSWYDYWGQGTLVTVSS
notes: monovalent anti-human PD-1 Nanobody, parent of F023700706
As for B3, the “EC50 (read off the curve)” value in test [4] is roughly 0.9 nM. Moreover, the “IC50 (read off the curve)” value in test [5] and in test [6] was roughly 0.3 nM throughout.

B4: F023701190 (1PD102C12 (E1D, L11V, A14P, W52aV, A74S, K83R, I89L, W100aF)-HIS6) (VHH)
VHH: DVQLVESGGGVVQPGGSLRLSCAASGSIASIHAMGWFRQAPGKEREFVAVITVSGGITYYADSVKGRFTISRDNSKNTVYLQMNSLRPEDTALYYCAGDKHQSSFYDYWGQGTLVTVSS
notes: monovalent anti-human PD-1 Nanobody variant; also called Enhanced SO 1PD102C12 monomer; not shown: C-terminal HIS6 tag
Consider B4, for which the “IC50 (read off the curve)” value in test [5] was roughly 1 nM; in test [6], roughly 0.9 nM.

B5: F023701192 (1PD102C12 (E1D, L11V, A14P, W52aV, N73Q, A74S, K83R, I89L, W100aF)-HIS6) (VHH)
VHH: DVQLVESGGGVVQPGGSLRLSCAASGSIASIHAMGWFRQAPGKEREFVAVITVSGGITYYADSVKGRFTISRDQSKNTVYLQMNSLRPEDTALYYCAGDKHQSSFYDYWGQGTLVTVSS
notes: monovalent anti-human PD-1 Nanobody variant; not shown: C-terminal HIS6 tag
Consider B5, for which the Kd in test [7] and in test [8] was 1.3 nM in each case. The off-rate (koff) in test [7] and in test [8] was 0.0032 s⁻¹ in each case. In addition, the kon in test [7] and in test [8] was 2.5e+06 M⁻¹ s⁻¹ in each case. Further, the figures for the “IC50 (read off the curve)” value in test [5] and in test [6] were roughly 1 nM and roughly 0.9 nM, respectively.

B6: F023701193 (1PD102C12 (E1D, L11V, A14P, W52aV, N73P, A74S, K83R, I89L, W100aF)-HIS6) (VHH)
VHH: DVQLVESGGGVVQPGGSLRLSCAASGSIASIHAMGWFRQAPGKEREFVAVITVSGGITYYADSVKGRFTISRDPSKNTVYLQMNSLRPEDTALYYCAGDKHQSSFYDYWGQGTLVTVSS
notes: as for B5
Regarding B6, the Kd in test [7] and in test [8] was 2.4 nM throughout. The dissociation rate constant (koff) in test [7] and in test [8] was 0.0075 s⁻¹ each time. In addition, the kon in test [7] and in test [8] was 3.2e+06 M⁻¹ s⁻¹ each time. For the same molecule, the “IC50 (read off the curve)” value in test [5] is roughly 1 nM; in test [6], roughly 0.9 nM.

B7: F023700929 (1PD102C12 (L11V, A14P, A74S, K83R, I89L)-HIS6) (VHH)
VHH: EVQLVESGGGVVQPGGSLRLSCAASGSIASIHAMGWFRQAPGKEREFVAVITWSGGITYYADSVKGRFTISRDNSKNTVYLQMNSLRPEDTALYYCAGDKHQSSWYDYWGQGTLVTVSS
notes: not shown: C-terminal HIS6 tag
In the case of B7, the Kd in test [7] and in test [8] was 0.29 nM throughout. For the same molecule, the koff in test [7] and in test [8] was 0.00059 s⁻¹ in each case. For the same molecule, the on-rate (kon) in test [7] and in test [8] was 2e+06 M⁻¹ s⁻¹ throughout. Further, the “IC50 (read off the curve)” value in test [5] and in test [6] was roughly 1 nM throughout.
